From patent US20240124582A1 (published 2024)

Target: T1, soluble LAG-3 fusion protein: extracelluar domain of cynomolgus monkey LAG-3 fused to murine IgG2a (cynomolgus monkey; murine)
T1 construct: extracellular domain; also called cynomolgus LAG-3-murine IgG2a fusion protein
Experiment: SPR (Biacore); cynomolgus LAG-3-murine IgG2a captured on Fab2 goat-anti mouse Fc, antibody in solution
Procedure: In additional studies, the binding kinetics of the humanized antibodies hLAG-3 mAb 1 (1.4) and hLAG-3 mAb 6 (1.1), and a reference antibody LAG-3 mAb A to both human and cynomolgus monkey LAG-3 was investigated using Biacore analysis. In these studies, a soluble LAG-3 fusion protein (the extracelluar domain of human or cynomolgus monkey LAG-3 fused to murine IgG2a) was captured on a Fab2 goat-anti mouse Fc surface and incubated with the anti-LAG-3 antibody and the kinetics of binding was determined via Biacore analysis. The binding curves for LAG-3 mAb A, hLAG-3 mAb 1 (1.4) and hLAG-3 mAb 6 (1.1) binding to cynomolgus monkey LAG-3 are shown in FIGS. 7A-7C respectively, and the calculated ka, kd and KD are presented in Table 8. In a separate study, the binding of a bispecific Fc Region-containing diabody comprising hLAG-3 mAb 6 (1.1) to both human and cynomolgus monkey LAG-3 was investigated using Biacore analysis. In this study, the hLAG-3 mAb 6 (1.1) containing diabody was captured on a Fab2 goat-anti human Fc surface and incubated with soluble LAG-3 fusion protein (the extracelluar domain of human or cynomolgus monkey LAG-3 fused to a His tag) and the kinetics of binding was determined via Biacore analysis.

B1: 25F7 (BMS-986016, Medarex/BMS), designated LAG-3 mAb A (antibody, V domains shown)
VH: QVQLQQWGAGLLKPSETLSLTCAVYGGSFSDYYWNWIRQPPGKGLEWIGEINHNGNTNSNPSLKSRVTLSLDTSKNQFSLKLRSVTAADTAVYYCAFGYSDYEYNWFDPWGQGTLVTVSS
VL: EIVLTQSPATLSLSPGERATLSCRASQSISSYLAWYQQKPGQAPRLLIYDASNRATGIPARFSGSGSGTDFTLTISSLEPEDFAVYYCQQRSNWPLTFGQGTNLEIK
notes: also called LAG-2 mAb A
Kd: 458 nM

B2: hLAG-3 mAb 6 (1.1) (antibody, V domains shown)
VH: QVQLVQSGAEVKKPGASVKVSCKASGYTFTDYNMDWVRQAPGQGLEWMGDINPDNGVTIYNQKFEGRVTMTTDTSTSTAYMELRSLRSDDTAVYYCAREADYFYFDYWGQGTTLTVSS
VL: DIQMTQSPSSLSASVGDRVTITCRASQDVSSVVAWYQQKPGKAPKLLIYSASYRYTGVPSRFSGSGSGTDFTLTISSLQPEDFATYYCQQHYSTPWTFGGGTKLEIK
notes: also called hLAG-3 6 (1.1); humanized LAG-3 mAb 6
Kd: 3.7 nM

B3: hLAG-3 mAb 1 (1.4), constant region not stated (antibody, V domains shown)
VH: QVQLVQSGAEVKKPGASVKVSCKASGYTFTNYGMNWVRQAPGQGLEWMGWINTYTGESTYADDFEGRFVFSMDTSASTAYLQISSLKAEDTAVYYCARESLYDYYSMDYWGQGTTVTVSS
VL: DIVMTQTPLSLSVTPGQPASISCKSSQSLLHSDAKTYLNWLLQKPGQPPERLIYLVSELDSGVPDRFSGSGSGTDFTLKISRVEAEDVGVYYCWQGTHFPYTFGGGTKVEIK
notes: also called hLAG-3 1 (1.4)
Kd: < 0.53 nM
